Source: patent US9809627B2, “Cyclized transthyretin peptide and methods of use therefor” (Wisconsin Alumni Research Foundation, priority 2014, dated 2017)
Entries after “also recorded” stand apart in the source; their conditions may differ. Where no end group is shown, it is not given here. [ ]: non-standard residue; d: D form.

Columns and labels:
Aβ (1-40) [1] = target: T1, Aβ (1-40) (Homo sapiens, UniProt P05067); test: Photoinduced cross-linking (PICUP) of Aβ and peptides; type: binding
T1 construct: Aβ (1-40) was purchased from Anaspec, Inc. (Fremont, Calif.) as lyophilized powder; purchased Anaspec, Inc. (Fremont, Calif.)
Procedure: (§1) Aβ (1-40) was purchased from Anaspec, Inc. (Fremont, Calif.) as lyophilized powder. For dynamic light scattering, ThT fluorescence assay, TEM, NTA measurement and filtration/sedimentation assay, Aβ was dissolved in 50% ACN, re-lyophilized, and reconstituted in 8M urea at 12 mg/mL. Aβ stock was then aliquoted, snap-frozen in ethanol with dry ice, and stored at −80° C. For PICUP and proteolytic fragmentation analysis, lyophilized Aβ was dissolved in prechilled hexafluoroisopropanol (HFIP, Acros Organics, Geel, Belgium), aliquoted, dried and stored at −20° C. as previously described (Cho et al., 2014). Aβ sample was prepared right before use by dissolving dried peptides in 50 mM NaOH and diluting into phosphate-buffered saline (PBSA) (10 mM Na2HPO4/NaH2PO4, 150 mM NaCL and 0.02% NaN3 (pH 7.4)) to 30 μM as previously described (Cho et al., 2014).
Aβ prepared with HFIP/NaOH treatment at 30 μM as described was mixed with peptides to a final concentration of 24 μM Aβ and 2.4 μM peptides. Aβ stock was used immediately (freshly prepared) or after incubation for 24 hr at 37° C. (1 day pre-aggregated). Samples of Aβ with and without peptides were incubated for 1 hr at 37° C. and cross-linked by photo-induced cross-linking method as previously described (Cho et al., 2014). Cross-linked samples were then separated on a 10-20% Tris-Tricine gradient gel (Iinvotrogen, Carlsbad, Calif.), transferred onto a 0.2 μm poly(vinylidene difluoride) (PVDF) membrane and detected by monoclonal mouse anti-Aβ antibody 4G8 (Covance, Princeton, N.J.) as previously described (Cho et al., 2014).

[2] = system: primary cortical neuronal cells; test: In vitro cellular toxicity of Aβ (1-42), MTS assay; type: cell-based, mice; conditions: 10 μM peptide, 10 μM Aβ
Procedure: Aβ toxicity was assessed as described in detail previously (Yang et al., 2013; Cho et al., 2014). Briefly, the primary cortical neuronal cells were cultured from embryonic 15.5 day mice and were maintained in neurobasal media till they are matured. Aβ (1-42) (American Peptide, Sunnyvale, Calif.) at 1 mg/mL in PBS was diluted to 10 μM without or with peptides as previously described (Cho et al., 2014). At 6 days in vitro (DIV), the cells were treated with either Aβ alone or Aβ incubated with different doses of mTTR and peptides. Appropriate vehicle and controls were run along with the treatments. At 8 DIV, the neurons were incubated with MTS reagent (Promega) as per manufacturer protocol for 2-3 hrs and absorbance was measured at 490 nm.

Aβ (1-40) [3] = target: T1, Aβ (1-40); test: Dynamic light scattering of Aβ aggregate growth; type: biochemical; conditions: 140 μM Aβ
Procedure: as §1
Aβ stock in 8M urea prepared as stated above was thawed and sonicated for 2 min before being diluted into PBSA. Aβ alone (140 μM) or mixed with peptides (14 μM) was filtered through […] filter directly into a light scattering cuvette and placed into a bath of the index-matching solvent decahydronaphthalene with temperature controlled to 37° C. Light scattering data were collected using a Brookhaven BI-200SM system (Brookhaven Instruments Corp., Holtsville, N.Y.) and an Innova 90C-5 argon laser (Coherent, Santa Clara, Calif.) operating at 488 nm and 150 mW. The average scattering intensity at 90° was measured over 10 hr and data were normalized to the total mass concentration. The z-averaged hydrodynamic diameter was determined from the autocorrelation function using the method of cummulants.

Aβ (1-40) [4] = target: T1, Aβ (1-40); test: Transmission electron microscopy of Aβ aggregates; type: biochemical; conditions: 48 h at 37° C., 28 μM Aβ, 2.8 μM peptide
Procedure: as §1
Aβ alone (28 μM) or with peptides (G16 or CG3 at 2.8 μM) were prepared in PBSA and incubated for 48 hr at 37° C. A drop of sample was placed on a pioloform-coated grid and stained with methylamine tungstate stain. Images were taken with a Philips CM120 scanning transmission electron microscope (FEI Corp., Eindhoven, The Netherlands).

[5] = Peptide self-aggregation by light scattering; type: physicochemical; conditions: 80 μM, 37° C., after 1 hr of incubation
Procedure: To further probe for self-aggregation, G16, LG3, and CG3 were incubated at 80 μM at 37° C. and analyzed by light scattering.

Aβ (1-40) [6] = target: T1, Aβ (1-40); test: Thioflavin T (ThT) fluorescence assay of Aβ aggregation; type: biochemical; conditions: 28 μM Aβ, 2.8 μM peptide
Procedure: as §1
ThT stock solutions were prepared in PBSA and filtered through 0.22 μm filter. The concentration of ThT was measured using an extinction coefficient of 26,620 M^−1 cm^−1 at 416 nm and the stock solution was diluted to 10 μM in PBSA prior to the measurement. Aβ alone (28 μM) and with peptides (2.8 μM) or mTTR (2.8 μM) were prepared in PBSA and incubated for 48 hr at 37° C. After 1, 5, 24 and 48 hr of incubation, 10 μL of each sample was mixed with 130 μL of 10 μM ThT and analyzed. ThT fluorescence emission was measured using a QuantaMaster spectrofluometer (PTI, Birmingham, N.J.), with excitation at 440 nm and emission spectra recorded from 460 to 500 nm. Three serial spectra were averaged for each sample and the background signal of ThT in PBSA was subtracted from the averaged data. Fluorescence intensity at a wavelength of 480 nm was compared.

Aβ (1-40) [7] = target: T1, Aβ (1-40); test: Proteolytic fragmentation assay of Aβ with peptides (Proteinase K); type: binding; conditions: 3:1 molar excess of peptides, detection by 4G8
Procedure: as §1
The proteolytic fragmentation assay of Aβ with peptides was performed as previously described in detail (Cho et al., 2014). Briefly, Aβ alone (20 μM) or with peptide (60 μM) was incubated for 24 hr at 37° C. Proteinase K (Promega, Madison, Wis.) was added to the samples at a final concentration of 0.5 μg/mL and samples were dotted onto a 0.45 μm nitrocellulose membrane (Pierce) after incubation for 0, 5, 10, 20, 30, 40, 50, 60, 90 and 120 min. Membranes were then reacted with monoclonal antibodies against Aβ (6E10, Covance, against Aβ (3-8) and 4G8 against Aβ (18-22)) and visualized.

## SKVVT^DPPRYTIAALLSPYSYSQ [CG3] (chain 1 SKVVT[dP]PRYTIAALLSPYSYSQ; chain 2 SKVVT[dP]PRYTIAALLSPYSYSQ; also: head-to-tail to a chain's N/C-terminus) [cyclic 22-mer of TTR residues 104-123 grafted onto DPro-Pro template]
Aβ (1-40) [1]; freshly prepared or 1 day pre-aggregated Aβ
  interaction with freshly prepared versus pre-aggregated Aβ: much less interaction with freshly prepared Aβ than with pre-aggregated Aβ
Aβ (1-40) [1]; pre-aggregated Aβ, 10:1 molar excess of Aβ, Western blot 4G8
  interaction with Aβ (shift in cross-linked Aβ size distribution): interact with Aβ
[2]
  protection against Aβ toxicity: significant protection
Aβ (1-40) [3]; 14 μM peptide
  effect on Aβ aggregation (hydrodynamic diameter, total scattered intensity): increased the size of aggregates of Aβ
  intensity of scattered light of Aβ-peptide mixture: enhanced the intensity of scattered light similarly
Aβ (1-40) [3]; after 5 hr, 10:1 molar excess of Aβ, 37° C.
  mean hydrodynamic size of Aβ-peptide mixture: 1000 nm
Aβ (1-40) [4]
  morphology of Aβ aggregates by TEM: strikingly lower density of aggregates
[5]
  light scattering of peptide alone: scattered light above background
  scattering intensity relative to G16: about 5 times
Aβ (1-40) [6]; after 5 hr
  ThT fluorescence intensity of Aβ with peptide: remained low
Aβ (1-40) [6]; after 24 hr
  ThT fluorescence intensity of Aβ with peptide: fluorescence still remained low
Aβ (1-40) [7]
  effect on Aβ degradation by protease: Aβ degradation was delayed; also recorded: most effective in inhibiting degradation
